Details: Saccharomyces cerevisiae (strain ATCC 204508 / S288c), Thermal, DSC, Sodium phosphate 0.1 M, reversible: yes

Cytochrome c isoform 1 wild type, P00044, sequence (P00044 whole entry, canonical isoform): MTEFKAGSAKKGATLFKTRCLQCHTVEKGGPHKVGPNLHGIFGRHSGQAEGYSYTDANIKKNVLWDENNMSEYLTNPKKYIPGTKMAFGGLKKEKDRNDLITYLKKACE
Cytochrome c isoform 1 C108A, P00044, sequence (P00044 whole entry C108A, canonical isoform): as the sequence (P00044 whole entry, canonical isoform) above, with C108A counted along it

Substance	Tm (pH 5) [°C]	unfolding enthalpy (calorimetric) (pH 5) [kcal/mol]	unfolding enthalpy (van 't Hoff) (pH 5) [kcal/mol]	Tm (pH 6) [°C]	unfolding enthalpy (calorimetric) (pH 6) [kcal/mol]	unfolding enthalpy (van 't Hoff) (pH 6) [kcal/mol]	Tm (pH 5, structure 1YCC) [°C]	unfolding enthalpy (calorimetric) (pH 5, structure 1YCC) [kcal/mol]	unfolding enthalpy (van 't Hoff) (pH 5, structure 1YCC) [kcal/mol]	Tm (pH 6, structure 1YCC) [°C]	unfolding enthalpy (calorimetric) (pH 6, structure 1YCC) [kcal/mol]	unfolding enthalpy (van 't Hoff) (pH 6, structure 1YCC) [kcal/mol]
Cytochrome c isoform 1 wild type, P00044	47.4	58.3	82.2	50.7	64.5	92.2						
Cytochrome c isoform 1 C108A, P00044							55.5	68.9	99.2	56.2	69.9	104

Source: FireProtDB (doi:10.1021/bi00197a024)
